Measured values as given in patent US20060269549A1 (APPLIED MOLECULAR EVOLUTION, published 2006).
Where a chain is given by its changes, count along the chain named. Numbers in names are those of the source.

Columns and labels:
human TNF-α [1] = target: T1, human TNF-α (human, UniProt P01375 77-233); test: ELISA, Fab dilution series on human TNF-α (Example 1; the filing does not say which of its two ELISA formats: hTNF-α-coated plate, or Fab captured on anti-human kappa with 5 nM biotinylated hTNF-α)
T1 construct: It was biotinylated in some screening assays; also called hTNF-α; hTNF
T1 sequence (P01375 77-233 limits assumed): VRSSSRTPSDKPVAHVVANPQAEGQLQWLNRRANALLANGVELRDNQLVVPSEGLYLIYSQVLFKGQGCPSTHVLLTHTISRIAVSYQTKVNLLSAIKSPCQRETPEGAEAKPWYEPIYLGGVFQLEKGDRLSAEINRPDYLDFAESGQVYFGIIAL

human TNF-α [2] = target: T1, human TNF-α; test: KinExA 3000 kinetic exclusion assay
human TNF-α [3] = target: T1, human TNF-α; test: cell-based or functional assay
human TNF-α [4] = target: T1, human TNF-α; test: KinExA 3000 kinetic exclusion assay, 40 pM Fab mixed with 400 pM hTNF-α, time course; lower end of the printed range for A10K
Protocol: (§1) Next, binding kinetics of three of the Fab fragments described in Table 4 were determined in a kinetic exclusion assay. Affinity measurements were performed on a KinExA™3000 instrument (Sapidyne Instruments, Inc., Boise, Id.) using Fab fragments (A10K, A9K, and A10P) released from the periplasmic space whose concentration was determined by a quantitative ELISA. Briefly, antigen and antibody fragment were allowed to react in solution and the fraction of unbound reagent was determined by capture and measured on a bead support. Binding kinetics can be determined or calculated from the amount of unbound reagent. For instance, after interaction between TNF-α and a Fab fragment has occurred in solution, binding of the unreacted, free Fab fragment to TNF-α coated beads can be measured on the instrument by detection with a labeled secondary antibody to the Fab fragment (e.g., a goat anti-IgG (heavy and light)). […] After the incubation, the amount of unbound Fab in the equilibrated samples was determined on the KinExA™3000 instrument according to the manufacturer's instructions. Kd values were determined by the instrument software.
(§2) To measure kₒₙ, individual Fab fragments at a concentration of 40 pM were mixed with 400 pM of hTNF-α. […] The resulting data was used to calculate the kₒₙ with the instrument software. koff was calculated by using the formula Kd=koff/kₒₙ.

human TNF-α [5] = target: T1, human TNF-α; test: calculated from Kd = koff/kon (KinExA)
Protocol: (§3) Next, binding kinetics of three of the Fab fragments described in Table 4 were determined in a kinetic exclusion assay. Affinity measurements were performed on a KinExA™3000 instrument (Sapidyne Instruments, Inc., Boise, Id.) using Fab fragments (A10K, A9K, and A10P) released from the periplasmic space whose concentration was determined by a quantitative ELISA. Briefly, antigen and antibody fragment were allowed to react in solution and the fraction of unbound reagent was determined by capture and measured on a bead support. Binding kinetics can be determined or calculated from the amount of unbound reagent. For instance, after interaction between TNF-α and a Fab fragment has occurred in solution, binding of the unreacted, free Fab fragment to TNF-α coated beads can be measured on the instrument by detection with a labeled secondary antibody to the Fab fragment (e.g., a goat anti-IgG (heavy and light)). […] For A10K and A10P, the Fab concentration was 10 pM with the human TNF-α concentration beginning at 160 pM and then serially diluted to 0.078 pM with the final tube containing no human TNF-α. A9K incubation was set in a similar manner, with the Fab at a constant concentration of 20 pM and human TNF-α serially diluted beginning at 500 pM with a final concentration of 0.24 pM. After the incubation, the amount of unbound Fab in the equilibrated samples was determined on the KinExA™3000 instrument according to the manufacturer's instructions. Kd values were determined by the instrument software.
To measure kₒₙ, individual Fab fragments at a concentration of 40 pM were mixed with 400 pM of hTNF-α. A series of measurements were taken over a time course. The resulting data was used to calculate the kₒₙ with the instrument software. koff was calculated by using the formula Kd=koff/kₒₙ.

human TNF-α [6] = target: T1, human TNF-α; test: KinExA 3000 kinetic exclusion assay, periplasmic Fab with hTNF-α in solution, 20 h at 20 C
Protocol: as §3

human TNF-α [7] = target: T1, human TNF-α; test: KinExA 3000 kinetic exclusion assay, 40 pM Fab mixed with 400 pM hTNF-α, time course
Protocol: as §1, §2

B1: 2E7K Fab fragment (Fab, name in Kabat numbering, V domains shown)
VH: EVQLVESGGGLVQPGGSLRLSCAASGFKFSNHWMNWVRQAPGKGLEWVGEIRSKSMNSATHYARSVKGRFTISRDDSKNSLYLQMNSLKTEDTAVYYCARNYYGSTYDHWGQGTLVTVSS
VL: EIVLTQSPDFQSVTPKEKVTITCRASQFVGLSIHWYQQKPDQSPKLLIKYASESRSGVPSRFSGSGSGTDFTLTINSLEAEDAATYYCQQSHSWHFTFGQGTKVEIK
Human TNF-α [1]
  EC50 (read off the curve): ~0.02 µg/mL

B2: AME 3-2 antibody (antibody, V domains shown)
VH: B1 VH with K28T, S30R, M56I, H61F, R64E, T106Y
VL: DIQMTQSPSSLSASVGDRVTITCVTTQFVGYAIHWYQQKPGKAPKLLIYYASSSRSGVPSRFSGSGSGTDFTLTISSLQPEDFATYYCQQSHGWPFTFGQGTKVEIK
Human TNF-α [2]
  Kd: 0.01 pM
  koff: 2.6e-08 s⁻¹
  kon: 2.6e+06 M⁻¹ s⁻¹

B3: A10K IgG (antibody, V domains shown)
VH: B1 VH with R64E
VL: B1 VL with L31Y
Human TNF-α [3]
  EC50, L929 cell protection assay (FIG. 10): ~2.7 pM

B4: 2E7P Fab fragment (Fab, name in Kabat numbering, V domains shown)
VH: B1 VH with K28P
VL: B1 VL
Human TNF-α [1]
  EC50 (read off the curve): ~0.03 µg/mL

B5: 2C6K Fab fragment (Fab, name in Kabat numbering, V domains shown)
VH: B1 VH with M56I
VL: B1 VL with S54Y, R55M
Human TNF-α [1]
  EC50 (read off the curve): ~0.02 µg/mL

B6: A10K Fab fragment (Fab, V domains shown)
VH: B1 VH with R64E
VL: B1 VL with L31Y
notes: Fab released from the E. coli periplasm; Mutations against hu1: light S31Y, M55R; heavy T28K, I53M
Human TNF-α [4]
  kon: 3.9e+06 to 7.51e+06 M⁻¹ s⁻¹
Human TNF-α [5]
  koff: 1.96e-05 to 3.76e-05 s⁻¹
Human TNF-α [6]
  Kd: 3.5 to 7.2 pM
Human TNF-α [1]
  EC50 (read off the curve): ~0.02 µg/mL
Human TNF-α [3]
  EC50, L929 cell protection assay (FIG. 8): ~25 pM
  EC50, L929 cell protection assay (FIG. 9): ~67 pM

B7: 2C6P Fab fragment (Fab, name in Kabat numbering, V domains shown)
VH: B1 VH with K28P, M56I
VL: B1 VL with S54Y, R55M
Human TNF-α [1]
  EC50 (read off the curve): ~0.02 µg/mL

B8: hu1 Fab fragment (Fab, V domains shown)
VH: B1 VH with K28T, M56I, R64E
VL: B1 VL with L31S, R55M
notes: Parent Fab with fully human frameworks
Human TNF-α [1]
  binding result: binds

B9: A9P Fab fragment (Fab, name in Kabat numbering, V domains shown)
VH: B1 VH with K28P
VL: B1 VL with L31M, R55K
Human TNF-α [1]
  EC50 (read off the curve): ~0.02 µg/mL

B10: A9K Fab fragment (Fab, name in Kabat numbering, V domains shown)
VH: B1 VH
VL: B1 VL with L31M, R55K
Human TNF-α [7]
  kon: 2.6e+06 M⁻¹ s⁻¹
Human TNF-α [5]
  koff: 6.2e-06 s⁻¹
Human TNF-α [6]
  Kd: 2.4 pM
Human TNF-α [1]
  EC50 (read off the curve): ~0.02 µg/mL

B11: A10P Fab fragment (Fab, name in Kabat numbering, V domains shown)
VH: B1 VH with K28P, R64E
VL: B1 VL with L31Y
Human TNF-α [7]
  kon: 4.1e+06 M⁻¹ s⁻¹
Human TNF-α [5]
  koff: 8.2e-06 s⁻¹
Human TNF-α [6]
  Kd: 2 pM
Human TNF-α [1]
  EC50 (read off the curve): ~0.02 µg/mL
